For assay [1], the target named is adenosine A2A receptor (Homo sapiens (Human)) (UniProt P29274). As to the kind of experiment: cell-based or functional assay.
The target is the same in assay [2]. As to the kind of experiment: flow cytometry, HEK293-A2a cells; Parent Singlets in the same table: 230. For orientation: In flow cytometry, cells or beads pass a laser one at a time.
Assay [3] has the same target. As to the kind of experiment: flow cytometry, HEK293-A2a cells; Parent Singlets in the same table: 230; same picture as FIG. 16O.

Sequence of adenosine A2A receptor (Homo sapiens (Human)) (P29274 whole entry): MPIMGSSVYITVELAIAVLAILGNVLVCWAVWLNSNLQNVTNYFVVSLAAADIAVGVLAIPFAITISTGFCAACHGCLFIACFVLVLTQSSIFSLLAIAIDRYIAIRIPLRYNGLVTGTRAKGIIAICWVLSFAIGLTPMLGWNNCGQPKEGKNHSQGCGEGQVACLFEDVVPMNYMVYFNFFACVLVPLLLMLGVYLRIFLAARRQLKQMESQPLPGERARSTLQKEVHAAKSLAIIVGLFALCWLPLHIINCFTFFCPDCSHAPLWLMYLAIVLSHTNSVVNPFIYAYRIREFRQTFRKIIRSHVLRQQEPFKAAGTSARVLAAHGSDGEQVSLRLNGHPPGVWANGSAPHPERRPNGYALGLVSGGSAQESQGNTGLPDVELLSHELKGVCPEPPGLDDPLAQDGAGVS

In assay [1], R&D control antibody had an Absolute IC50, A2A cAMP antagonist titration (as in Example 16: titrated IgG, fixed NECA) of 9.43; an Absolute IC50, LANCE allosteric cAMP assay, titrated IgG then fixed NECA concentration of 9.43; an Absolute IC50, cAMP allosteric A2A assay (as in Example 15: fixed IgG, NECA titration) of 0.513; an Absolute IC50 of NECA titration in cAMP assay, cells pre-incubated with fixed 100 nM IgG of 2.25.
As for “Human Adenosine A2aR monoclonal (MAB9497) (antibody)”, the Median : RL1-H (A2a Singlets) in assay [2] and in assay [3] was 7500 each time.

These data come from US20210179724A1.
